Experimental data published in patent US20140287419A1, “Compositions Having Dicamba Decarboxylase Activity and Methods of Use” (priority 2013, published 2014).
Substitutions are numbered along the chain they refer to. Names may count otherwise.

B1: SEQ ID NO:1: 2,6-Dihydroxybenzoate Decarboxylase, Rhizobium sp. MTP-10005 (protein, listed as Rhizobium sp.)
chain: MAQGKVALEEHFAIPETLQDSAGFVPGDYWKELQHRLLDIQDTRLKLMDAHGIETMILSLNAPAVQAIPDRRKAIEIARRANDVLAEECAKRPDRFLAFAALPLQDPDAATEELQRCVNDLGFVGALVNGFSQEGDGQTPLYYDLPQYRPFWGEVEKLDVPFYLHPRNPLPQDSRIYDGHPWLLGPTWAFAQETAVHALRLMASGLFDEHPRLNIILGHMGEGLPYMMWRIDHRNAWVKLPPRYPAKRRFMDYFNENFHITTSGNFRTQTLIDAILEIGADRILFSTDWPFENIDHASDWFNATSIAEADRVKIGRTNARRLFKLDGA
B2: N61A: point mutation N61A of SEQ ID NO:109 (protein)
chain: B1 chain with N61A, N235V
modifications: Dicamba decarboxylase variant clone DC.4.032
B3: 109 (protein)
chain: B1 chain with N235V
modifications: Dicamba decarboxylase variant clone DC.4.032
B4: SEQ ID NO:121: Design variant of SEQ ID NO: 100 (protein)
chain: MAIIDCHGHYTTTPKGVEDYRNAQKAAVAKDPSFKGEKGQVVVSDDEIRESIENNQLKMQRERGTDLTIFSPRWDAGGHHIGNEYTSQFWTEHQNDLIRRVCDLFPKNFAPVAQLPQSPGVDPAKSVPEIVRTVEQMGFIGINLNPDPSGGYWKDTSLADRAFYPIYEKMVEYDIPAMIHPRLACNACFHTGLSVGLGADTTGFQQLIMSDVFKDFPSLKIIIPHGGGAVPYHWGRFRGLMQDQGYAPLEESALKNIYFDTCVYHQRGIDLLLDIVPTQNILFASEMIGAVRGIDPETGHNFDDTKRYIDNNTALNAEEKAMIFEGNARRVFSRLKTD
modifications: Dicamba decarboxylase variant clone DC.12.014
B5: SEQ ID NO:122: Design variant of SEQ ID NO: 100 (protein)
chain: B4 chain with W74S, D75T, L183N, A187D, G192T, L193G, V195H, G196A, E286D
modifications: Dicamba decarboxylase variant clone DC.12.103

Columns and labels:
[1] = Dicamba decarboxylation activity of computationally designed protein variants; settings: for Dicamba Decarboxylase Activity: native protein or designed variant versus parent
[2] = 14C assay with purified protein (14CO2 captured on Ca(OH)2 filter paper); format: biochemical; settings: [14C]-carboxyl-labeled dicamba
[3] = Detection of 2,5-DCA product by toluene capture or head-space GC/MS; format: biochemical; settings: purified protein, toluene capturing
Description: Alternatively, dicamba decarboxylase activity can be monitored by measuring decarboxylation products other than CO2 using product detection methods. The decarboxylation product of dicamba, 2,5-dichloro anisole or 2,5-DCA (FIG. 1C), is a volatile compound with a flash point of 21° C. To capture this volatile compound for detection, 140 ul of toluene solution is added on top of 1 ml reaction mixture to form a trapping layer in a 1.5 ml eppendorf tube. […] The reaction is kept still at room temperature overnight before being vortex mixed and centrifuged at 14,000 rpm for 15 minutes. The top toluene phase is carefully removed using a micropipette and transferred into a 12×32 mm polypropylene vial (Vial 11 mm) from MicroLiter Analytical Supplies, Inc. (catalog number 11-5300-100). The vial is sealed with Crimp seal (11 mm with FEP/Nat Rubber) from MicroLiter Analytical Supplies, Inc. (catalog number 11-0020A) using a E-Z Crimper™ 11 mm from Wheaton Inc. 1 ul of the toluene mixture is taken from the sealed vials and injected in splitless mode into a GC/MS system for sample analysis (Agilent GC/MS system with a 6890A GC, a 5973N MSD and a CTC CombiPAL auto-sampler or with a 7890A GC, a 5975C MSD and an Agilent GC Sampler 80 auto-sampler). The GC parameters are: Agilent DB-5MS column (30 m length, 0.25 mm diameter, 0.25 um film) or equivalent; The GC inlet temperature, 250° C.; Carry gas, helium in constant flow mode (1.2 mL/min); The GC oven temperature program, initial temperature at 70° C. for 1 min, ramping to 200° C. at 15° C./min, and then ramping to 250° C. at 30° C./min. MS data acquisition is done in SIM (selected ion monitoring) mode, monitoring the positive ion at M/Z 176 for the molecular ion of […]. The solvent delay for MS acquisition is set at 4 min. Another method for detection of 2,5-DCA is a head-space GC/MS method. Briefly, reaction mixtures in 500 ul reaction volume are prepared in 1.5 ml×32 mm glass vials (Microliter Analytical Supplies, Cat#11-1200) for head space analysis. Glass vials are sealed with magnetic cap from MicroLiter Analytical Supplies, Inc. (catalog number 11-0030AT) using a E-Z Crimper™ 11 mm from Wheaton Industries Inc. The reaction is carried out at room temperature for various amount of time and stopped by heating at 95° C. for 5 min. The reaction vial is transferred to a agitator for incubation at 80° C. for 5 min at 500 rpm. With a syringe preheated at 80° C., 1000 uL of head space is injected with sample fill speed at 100 uL/sec. GC/MS parameters for headspace analysis are the same as for liquid sample analysis.

[4] = Detection of 4-chloro-3-methoxy phenol product by LC-MS/MS; format: biochemical; settings: purified protein
[5] = Detection of 2,5-DCP product by GC/MS; format: biochemical; settings: purified protein
[6] = 14C assay with IPTG-induced recombinant E. coli cells (14CO2 capture from [14C]-carboxyl-labeled dicamba)
[7] = Enzyme kinetic characterization (kcat, KM, kcat/KM) by PEPC/MDH coupled enzyme assay or GC/MS measurement of 2,5-DCP
[8] = Saturation mutagenesis of SEQ ID NO:109, dicamba decarboxylation activity of point mutants
[9] = purified protein, substrate dicamba

Molecule	Dicamba Decarboxylase Activity [1]	CO2 product [2]	2,5-DCA product [3]	4-chloro-3-methoxy phenol product [4]	2,5-DCP product [5]	further results
B1	native dicamba decarboxylase activity	detected	detected	detected	detected	decarboxylation activity of dicamba ([6]; E. coli cell assay, 108 sequences tested): showed decarboxylation activity of dicamba
B2						KM compared with template SEQ ID NO:109 ([7]; FIG. 6): unchanged; kcat compared with template SEQ ID NO:109 ([7]; FIG. 6): 17 fold; Average Activity (Fold of SEQ ID NO: 109) ([8]; dicamba decarboxylation activity of point mutants of SEQ ID NO: 109 (NNK saturation mutagenesis), relative to the unchanged template): 2.9 Fold of SEQ ID NO: 109; Average Activity (Fold of SEQ ID NO: 109) ([8]; dicamba decarboxylation activity of single point mutants of SEQ ID NO:109, relative to unchanged template): 2.9 Fold of SEQ ID NO: 109
B3						Dicamba Decarboxylation activity ([1]; Table 5, designed variants with improved activity): Yes; Percent Activity Improvement Over Parent (%) ([1]; parent SEQ ID NO:1 or SEQ ID NO:41 listed as 100): 234%; Km [7, 9]: 4.66 mM; kcat [7, 9]: 0.000533 s⁻¹; Enzymatic Detection level ([6]; dicamba decarboxylation activity of the protein of the given SEQ ID NO): High
B4	have dicamba decarboxylase activity	not detected	detected	not detected	not detected	
B5	have dicamba decarboxylase activity	not detected	detected	not detected	not detected	
